Results on 50 sequences are retold here after the supplement of paper PMC10724198.

The test system of the data set is Saccharomyces cerevisiae. Briefly: protein stability index of tFT-peptide fusion (C-terminal peptide) (PSI (0-1 scale)); higher = more stable (slower turnover). As to conditions: temperature: 30 C. On the procedure: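 MPS profiling in S. cerevisiae of the yeast C-terminome library: the last 12 aa of each annotated ORF are fused to the C-terminus of a sfGFP-mCherry timer, after a GGGS linker. Cells are FACS-sorted into 8 mCherry/sfGFP bins and deep-sequenced. PSI runs from 0 (unstable) to 1 (stable); wild type and das1Δ backgrounds, two technical replicates each.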

The mark [1] stands for this setting: genetic background: das1 deletion.

± gives the standard deviation of the averaged measurements.

With SLRIEAIKKGFV [SPS1 C-terminal 12 aa], the protein stability index turned out to be 0.727 ± 0.048 under setting [1] and 0.675 ± 0.029 (genetic background: wild type).
As to SMDEEFKNMDCI [SIR3 C-terminal 12 aa], the protein stability index worked out at 0.706 ± 0.0084 under setting [1] and 0.701 ± 0.05 (genetic background: wild type).
SNKKLKSQWLIK [EMC1 C-terminal 12 aa]: the protein stability index under setting [1] came out at 0.722 ± 0.017 and the protein stability index (genetic background: wild type) turned out to be 0.665 ± 0.0081.
On to SNNPKLHHAKEA [MEP3 C-terminal 12 aa], for which the protein stability index reads like this: under setting [1], 0.696 ± 0.041; (genetic background: wild type) 0.375 ± 0.013.
Regarding SQAGLMSNEEVL [CCC2 C-terminal 12 aa], the protein stability index is, setting by setting: under setting [1], 0.69664 ± 0.00011; (genetic background: wild type) 0.699 ± 0.022.
In the case of SQRPAKGVPEGF [VPS72 C-terminal 12 aa], the protein stability index was 0.69 ± 0.024 under setting [1] and 0.733 ± 0.051 (genetic background: wild type).
On to SRFDYLTRKNAL [CBK1 C-terminal 12 aa], for which the protein stability index reads like this: under setting [1], 0.6716 ± 0.0016; (genetic background: wild type) 0.71 ± 0.051.
SRFEVACEQKAA [BSC2 C-terminal 12 aa]: the protein stability index by setting is: under setting [1], 0.579 ± 0.019; (genetic background: wild type) 0.592 ± 0.019.
With “SRFRTNRLKGDQ [YNL042W-B C-terminal 12 aa]”, the protein stability index under setting [1] is 0.699 ± 0.027 and the protein stability index (genetic background: wild type) was 0.689 ± 0.026.
The matching figures for SRLKKEFEAAAL [IDP2 C-terminal 12 aa]: 0.6762 ± 0.0031 and 0.678 ± 0.085.
The sequence SSGADNSASSNQ [PAM16 C-terminal 12 aa] came in with a protein stability index under setting [1] of 0.684 ± 0.014 and a protein stability index (genetic background: wild type) of 0.667 ± 0.029.
The matching figures for “SSSLSPSLSSWP [YJL020W-A C-terminal 12 aa]”: 0.739 ± 0.051 and 0.778 ± 0.17.
The matching figures for SSTGTPEHDQDT [EUC1 C-terminal 12 aa]: 0.69 ± 0.0083 and 0.682 ± 0.025.
On to STATGKLKKRKM [RAD2 C-terminal 12 aa], for which the protein stability index by setting is: under setting [1], 0.718 ± 0.023; (genetic background: wild type) 0.649 ± 0.021.
The matching figures for STFSIVSSISLW [YPL044C C-terminal 12 aa]: 0.6894 ± 0.0026 and 0.665 ± 0.057.
For STPIAIGIMNIL [YDR271C C-terminal 12 aa], the protein stability index reads like this: under setting [1], 0.674 ± 0.018; (genetic background: wild type) 0.697 ± 0.0089.
The matching figures for STSSLKRQRTDF [REX2 C-terminal 12 aa]: 0.718 ± 0.011 and 0.712 ± 0.017.
The matching figures for “STTADSTTNSAN [YLR146W-A C-terminal 12 aa]”: 0.696 ± 0.014 and 0.664 ± 0.011.
Consider SVFLLNITYLLD [YOR314W C-terminal 12 aa], for which the protein stability index reads like this: under setting [1], 0.236 ± 0.0099; (genetic background: wild type) 0.268 ± 0.018.
The matching figures for SVTFFIQDILCL [YPL073C C-terminal 12 aa]: 0.389 ± 0.019 and 0.407 ± 0.015.
In the case of SWINLDFNDGDE [MDM12 C-terminal 12 aa], the protein stability index runs as follows: under setting [1], 0.6957 ± 0.004; (genetic background: wild type) 0.67488 ± 0.00028.
The matching figures for SYRVMQPNEFES [YGL214W C-terminal 12 aa]: 0.7 ± 0.016 and 0.711 ± 0.11.
TAAQILKKQNRL [YDR541C C-terminal 12 aa] had a protein stability index under setting [1] of 0.6454 ± 0.0021 and a protein stability index (genetic background: wild type) of 0.704 ± 0.063.
For the sequence TALLENDANLIS [ERV15 C-terminal 12 aa], the protein stability index by setting is: under setting [1], 0.703 ± 0.019; (genetic background: wild type) 0.703 ± 0.021.
Turning to TALNSGRSRDVK [YJL027C C-terminal 12 aa], the protein stability index turned out to be 0.6821 ± 0.0027 under setting [1] and 0.678 ± 0.019 (genetic background: wild type).
The matching figures for TCLTGEVIFPPR [NPC2 C-terminal 12 aa]: 0.7115 ± 0.0058 and 0.72 ± 0.017.
Turning to TDGLNVWKTISV [RRB1 C-terminal 12 aa], the protein stability index amounted to 0.661 ± 0.023 under setting [1] and 0.6468 ± 0.0058 (genetic background: wild type).
TEDKNKALESAQ [VPS60 C-terminal 12 aa]: the protein stability index runs as follows: under setting [1], 0.702 ± 0.013; (genetic background: wild type) 0.6706 ± 0.0056.
As to TEDQFKENGVKK [ICL1 C-terminal 12 aa], the protein stability index reads like this: under setting [1], 0.703 ± 0.033; (genetic background: wild type) 0.716 ± 0.065.
With TEEMKDAEEMKQ [RIX7 C-terminal 12 aa], the protein stability index is 0.685 ± 0.014 under setting [1] and 0.661 ± 0.017 (genetic background: wild type).
Consider TEFMNFWINVLP [RSC4 C-terminal 12 aa], for which the protein stability index by setting is: under setting [1], 0.725 ± 0.028; (genetic background: wild type) 0.715 ± 0.02.
The matching figures for TFEELWNGVEGI [ARH1 C-terminal 12 aa]: 0.722 ± 0.016 and 0.682 ± 0.038.
The matching figures for TFGKCILDGFKA [SCM4 C-terminal 12 aa]: 0.709 ± 0.017 and 0.687 ± 0.05.
Turning to TGQVGVPTISQV [NCE102 C-terminal 12 aa], the protein stability index under setting [1] was 0.687 ± 0.021 and the protein stability index (genetic background: wild type) worked out at 0.6819 ± 0.0068.
As for THENIHQKFVQF [SFB3 C-terminal 12 aa], the protein stability index reads like this: under setting [1], 0.7294 ± 0.004; (genetic background: wild type) 0.6358 ± 0.0022.
The matching figures for THTHHNPNPTLF [YNL338W C-terminal 12 aa]: 0.707 ± 0.011 and 0.716 ± 0.075.
The matching figures for TILFMLVLYTIV [YDL241W C-terminal 12 aa]: 0.222 ± 0.017 and 0.222 ± 0.023.
On to TKVIQVQKKCIQ [IRC14 C-terminal 12 aa], for which the protein stability index is, setting by setting: under setting [1], 0.688 ± 0.026; (genetic background: wild type) 0.672 ± 0.032.
In the case of TKVYFLGRDSSV [NDE2 C-terminal 12 aa], the protein stability index was 0.688 ± 0.013 under setting [1] and 0.6764 ± 0.0011 (genetic background: wild type).
On to TLIDYFIENDGL [LYS5 C-terminal 12 aa], for which the protein stability index turned out to be 0.7227 ± 0.0034 under setting [1] and 0.761 ± 0.092 (genetic background: wild type).
The matching figures for TLRGLSNAFPTD [MME1 C-terminal 12 aa]: 0.7057 ± 0.0043 and 0.703 ± 0.013.
Regarding TPKYVESDEDDQ [TOF2 C-terminal 12 aa], the protein stability index reads like this: under setting [1], 0.654 ± 0.041; (genetic background: wild type) 0.7196 ± 0.0037.
Consider TQSPADFSSQNH [NHX1 C-terminal 12 aa], for which the protein stability index stood at 0.74 ± 0.021 under setting [1] and 0.701 ± 0.021 (genetic background: wild type).
The matching figures for “TRGEATLRANYQ [YOR008W-B C-terminal 12 aa]”: 0.6862 ± 0.003 and 0.73 ± 0.055.
As for TRGPRRKLPTRV [BSP1 C-terminal 12 aa], the protein stability index is, setting by setting: under setting [1], 0.6863 ± 0.0066; (genetic background: wild type) 0.672 ± 0.06.
The matching figures for TSIEEDLASKSE [RTA1 C-terminal 12 aa]: 0.689 ± 0.02 and 0.676 ± 0.008.
Take TSSQYEGVALGM [EAF3 C-terminal 12 aa]: the protein stability index reads like this: under setting [1], 0.695 ± 0.013; (genetic background: wild type) 0.669 ± 0.0083.
TTHGLKQKLQHA [RTN2 C-terminal 12 aa] returned a protein stability index under setting [1] of 0.701 ± 0.011 and a protein stability index (genetic background: wild type) of 0.698 ± 0.024.
As for TTRYAKEMNIIS [HIR2 C-terminal 12 aa], the protein stability index is, setting by setting: under setting [1], 0.694 ± 0.031; (genetic background: wild type) 0.705 ± 0.054.
As for TVSSVESVLAHL [AHP1 C-terminal 12 aa], the protein stability index runs as follows: under setting [1], 0.728 ± 0.016; (genetic background: wild type) 0.7489 ± 0.0029.
